Assay results reported in US20220089710A1, “Method of Treating Signs and Symptoms of Osteoarthritis” (Pfizer Inc., priority 2019, published 2022).

What was measured:
[1] = system: patients with osteoarthritis (OA) of the knee or hip; assay: Example 3: adjudicated joint safety outcomes (patient-level and joint-level) and total joint replacements, Safety Population; assay type: in vivo, human; settings: for rapidly progressive OA (types 1 and 2 combined): % of patients: any adjudicated RPOA
Source text: Central radiology readers (Central Readers) may be board certified radiologists or have the international equivalent as musculoskeletal radiologists. The Central Readers may be governed by an imaging atlas and an imaging Charter which includes a specific description of the scope of their responsibilities. Central Readers may review the radiology images at Screening for assessment of eligibility (including determination of Kellgren-Lawrence Grade) and identification of exclusionary joint conditions such as rapidly progressive osteoarthritis, atrophic or hypotrophic osteoarthritis, subchondral insufficiency fractures (spontaneous osteonecrosis of the knee [SPONK]), primary osteonecrosis and pathological fractures. After start of treatment, the Central Reader may review radiology images for diagnosis of joint conditions that would warrant further evaluation by the Adjudication Committee such as possible or probable rapidly progressive osteoarthritis, subchondral insufficiency fractures (spontaneous osteonecrosis of the knee [SPONK]), primary osteonecrosis or pathological fracture.
For subjects who are identified with a possible or probable joint event (i.e., rapidly progressive osteoarthritis, subchondral insufficiency fractures, spontaneous osteonecrosis of the knee (SPONK), primary osteonecrosis or pathological fracture) and subjects undergoing total joint replacement for any reason, all images and other source documentation may be provided to the blinded Adjudication Committee for review and adjudication of the event. The Adjudication Committee's assessment of the event may represent the final classification of the event.
This study was designed with a total (post-randomization) duration of 80 weeks and consisted of three periods: Screening (up to a maximum of 37 days), Double-blind Treatment (56 weeks), and Safety Follow-up (24 weeks) (FIG. 1). The Screening Period included a Washout Period (lasting 2-30 days) if required, and an Initial Pain Assessment Period (7 days prior to Randomization/Baseline; minimum 3 days).

NGF = NGF (Homo sapiens, UniProt P01138); settings: cited from earlier work
Sequence of NGF (P01138 122-241): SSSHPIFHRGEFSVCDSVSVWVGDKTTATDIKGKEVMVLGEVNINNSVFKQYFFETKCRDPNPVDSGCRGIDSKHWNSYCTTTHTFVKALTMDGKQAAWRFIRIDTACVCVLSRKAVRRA

[2] = 2.5 mg SC, observation time-adjusted analysis
[3] = 2.5 mg SC, primary outcome per subject
[4] = 5 mg SC, observation time-adjusted analysis
[5] = 5 mg SC, primary outcome per subject
[6] = tanezumab 2.5 mg (N = 1002), joint-level
[7] = tanezumab 5 mg (N = 998), joint-level

tanezumab: humanized immunoglobulin G Type 2 (IgG2) monoclonal antibody directed against human nerve growth factor (NGF); SEQ ID NOs: 9 or 11 and 10
Observation time-adjusted incidence of patients with ≥1 reported TJR ([1]; 2.5 mg SC): (51.8) /1000 patient-years | Pathological Fracture: observation time-adjusted rate ([1]; 2.5 mg SC): (0) /1000 patient-years | Patients analyzed by the Adjudication Committee: n ([1]; 2.5 mg SC): 115 | Primary Composite Joint Safety Endpoint: rate difference vs. NSAID ([1]; 2.5 mg SC): 22.5 | Primary Osteonecrosis: observation time-adjusted rate ([1]; 2.5 mg SC): (0) /1000 patient-years | Rapidly Progressive OA type 1: observation time-adjusted rate ([1]; 2.5 mg SC): (28.4) /1000 patient-years | Rapidly Progressive OA type 1: rate difference vs. NSAID ([1]; 2.5 mg SC): 17.6 | Rapidly Progressive OA type 2: rate difference vs. NSAID ([1]; 2.5 mg SC): 1.9 | Rapidly Progressive OA: rate difference vs. NSAID ([1]; 2.5 mg SC): 19.6 | Secondary Composite Joint Safety Endpoint: observation time-adjusted rate ([1]; 2.5 mg SC): (8.8) /1000 patient-years | Secondary Composite Joint Safety Endpoint: rate difference vs. NSAID ([1]; 2.5 mg SC): 3.8 | Subchondral Insufficiency Fracture: observation time-adjusted rate ([1]; 2.5 mg SC): (5.8) /1000 patient-years | Subchondral Insufficiency Fracture: rate difference vs. NSAID ([1]; 2.5 mg SC): 1.9 | TJR: rate difference vs. NSAID ([1]; 2.5 mg SC): 27.2 | patients with ≥1 reported TJR: number ([1]; 2.5 mg SC): 53 | rapidly progressive OA (types 1 and 2 combined): % of patients ([1]; 2.5 mg SC): 3.2% | Pathological Fracture: n [1, 2]: 0 | Primary Composite Joint Safety Endpoint: n [1, 2]: 38 | Primary Osteonecrosis: n [1, 2]: 0 | Rapidly Progressive OA type 1: n [1, 2]: 29 | Rapidly Progressive OA: n [1, 2]: 32 | Secondary Composite Joint Safety Endpoint: n [1, 2]: 9 | Subchondral Insufficiency Fracture: n [1, 2]: 6 | Normal Progression of OA: % [1, 3]: (6.6%) | Normal Progression of OA: n [1, 3]: 66 | Not enough information to determine Rapid vs. Normal Progression of OA: % [1, 3]: (0.2%) | Not enough information to determine Rapid vs. Normal Progression of OA: n [1, 3]: 2 | Other Joint Outcome: % [1, 3]: (0.9%) | Other Joint Outcome: n [1, 3]: 9 | Pathological Fracture: n [1, 3]: 0 | Primary Composite Joint Safety Endpoint: % [1, 3]: 3.8% and (3.8%) | Primary Composite Joint Safety Endpoint: n [1, 3]: 38 | Primary Osteonecrosis: n [1, 3]: 0 | Rapidly Progressive OA type 1: % [1, 3]: (2.9%) | Rapidly Progressive OA type 1: n [1, 3]: 29 | Rapidly Progressive OA type 2: % [1, 3]: (0.3%) | Rapidly Progressive OA: % [1, 3]: (3.2%) | Rapidly Progressive OA: n [1, 3]: 32 | Secondary Composite Joint Safety Endpoint: % [1, 3]: (0.9%) | Secondary Composite Joint Safety Endpoint: n [1, 3]: 9 | Subchondral Insufficiency Fracture: % [1, 3]: (0.6%) | Subchondral Insufficiency Fracture: n [1, 3]: 6 | Observation time-adjusted incidence of patients with ≥1 reported TJR ([1]; 5 mg SC): (78.7) /1000 patient-years | Pathological Fracture: observation time-adjusted rate ([1]; 5 mg SC): (0) /1000 patient-years | Patients analyzed by the Adjudication Committee: n ([1]; 5 mg SC): 171 | Primary Composite Joint Safety Endpoint: rate difference vs. NSAID ([1]; 5 mg SC): 56.7 | Primary Osteonecrosis: observation time-adjusted rate ([1]; 5 mg SC): (1.0) /1000 patient-years | Rapidly Progressive OA type 1: observation time-adjusted rate ([1]; 5 mg SC): (49.1) /1000 patient-years | Rapidly Progressive OA type 1: rate difference vs. NSAID ([1]; 5 mg SC): 38.2 | Rapidly Progressive OA type 2: rate difference vs. NSAID ([1]; 5 mg SC): 12.9 | Rapidly Progressive OA: rate difference vs. NSAID ([1]; 5 mg SC): 51.5 | Secondary Composite Joint Safety Endpoint: observation time-adjusted rate ([1]; 5 mg SC): (21.8) /1000 patient-years | Secondary Composite Joint Safety Endpoint: rate difference vs. NSAID ([1]; 5 mg SC): 16.9 | Subchondral Insufficiency Fracture: observation time-adjusted rate ([1]; 5 mg SC): (6.9) /1000 patient-years | Subchondral Insufficiency Fracture: rate difference vs. NSAID ([1]; 5 mg SC): 3.0 | TJR: rate difference vs. NSAID ([1]; 5 mg SC): 54.0 | patients with ≥1 reported TJR: number ([1]; 5 mg SC): 79 | rapidly progressive OA (types 1 and 2 combined): % of patients ([1]; 5 mg SC): 6.3% | Pathological Fracture: n [1, 4]: 0 | Primary Composite Joint Safety Endpoint: n [1, 4]: 71 | Primary Osteonecrosis: n [1, 4]: 1 | Rapidly Progressive OA type 1: n [1, 4]: 49 | Rapidly Progressive OA type 2: n [1, 4]: 14 | Rapidly Progressive OA: n [1, 4]: 63 | Secondary Composite Joint Safety Endpoint: n [1, 4]: 22 | Subchondral Insufficiency Fracture: n [1, 4]: 7 | Normal Progression of OA: % [1, 5]: (7.9%) | Normal Progression of OA: n [1, 5]: 79 | Not enough information to determine Rapid vs. Normal Progression of OA: n [1, 5]: 0 | Other Joint Outcome: % [1, 5]: (2.1%) | Other Joint Outcome: n [1, 5]: 21 | Pathological Fracture: n [1, 5]: 0 | Primary Composite Joint Safety Endpoint: % [1, 5]: 7.1% and (7.1%) | Primary Composite Joint Safety Endpoint: n [1, 5]: 71 | Primary Osteonecrosis: % [1, 5]: (0.1%) | Primary Osteonecrosis: n [1, 5]: 1 | Rapidly Progressive OA type 1: % [1, 5]: (4.9%) | Rapidly Progressive OA type 1: n [1, 5]: 49 | Rapidly Progressive OA type 2: % [1, 5]: 1.4% and (1.4%) | Rapidly Progressive OA type 2: n [1, 5]: 14 | Rapidly Progressive OA: % [1, 5]: (6.3%) | Rapidly Progressive OA: n [1, 5]: 63 | Secondary Composite Joint Safety Endpoint: % [1, 5]: (2.2%) | Secondary Composite Joint Safety Endpoint: n [1, 5]: 22 | Subchondral Insufficiency Fracture: % [1, 5]: (0.7%) | Subchondral Insufficiency Fracture: n [1, 5]: 7 | Rapidly Progressive OA type 1: Associated with TJR No, % [1, 6]: (90.0%) | Rapidly Progressive OA type 1: Associated with TJR Yes, % [1, 6]: (10.0%) | Rapidly Progressive OA type 1: Baseline Kellgren-Lawrence Grade of Affected Joint 0, % [1, 6]: (3.3%) | Rapidly Progressive OA type 1: Baseline Kellgren-Lawrence Grade of Affected Joint 1, % [1, 6]: (20.0%) | Rapidly Progressive OA type 1: Baseline Kellgren-Lawrence Grade of Affected Joint 2, % [1, 6]: (36.7%) | Rapidly Progressive OA type 1: Baseline Kellgren-Lawrence Grade of Affected Joint 3, % [1, 6]: (40.0%) | Rapidly Progressive OA type 1: Joint affected Hip, % [1, 6]: (13.3%) | Rapidly Progressive OA type 1: Joint affected Knee, % [1, 6]: (86.7%) | Rapidly Progressive OA type 2: Associated with TJR No, % [1, 6]: (66.7%) | Rapidly Progressive OA type 2: Associated with TJR Yes, % [1, 6]: (33.3%) | Rapidly Progressive OA type 2: Baseline Kellgren-Lawrence Grade of Affected Joint 3, % [1, 6]: (33.3%) | Rapidly Progressive OA type 2: Baseline Kellgren-Lawrence Grade of Affected Joint 4, % [1, 6]: (66.7%) | Rapidly Progressive OA type 2: Joint affected Hip, % [1, 6]: (33.3%) | Rapidly Progressive OA type 2: Joint affected Knee, % [1, 6]: (66.7%) | Subchondral Insufficiency Fracture: Associated with TJR No, % [1, 6]: (100.0%) | Subchondral Insufficiency Fracture: Baseline Kellgren-Lawrence Grade of Affected Joint 2, % [1, 6]: (33.3%) | Subchondral Insufficiency Fracture: Baseline Kellgren-Lawrence Grade of Affected Joint 3, % [1, 6]: (66.7%) | Subchondral Insufficiency Fracture: Joint affected Hip, % [1, 6]: (33.3%) | Subchondral Insufficiency Fracture: Joint affected Knee, % [1, 6]: (66.7%) | Rapidly Progressive OA type 1: Associated with TJR No, % [1, 7]: (84.9%) | Rapidly Progressive OA type 1: Associated with TJR Yes, % [1, 7]: (15.1%) | Rapidly Progressive OA type 1: Baseline Kellgren-Lawrence Grade of Affected Joint 0, % [1, 7]: (3.8%) | Rapidly Progressive OA type 1: Baseline Kellgren-Lawrence Grade of Affected Joint 1, % [1, 7]: (20.8%) | Rapidly Progressive OA type 1: Baseline Kellgren-Lawrence Grade of Affected Joint 2, % [1, 7]: (43.4%) | Rapidly Progressive OA type 1: Baseline Kellgren-Lawrence Grade of Affected Joint 3, % [1, 7]: (30.2%) | Rapidly Progressive OA type 1: Baseline Kellgren-Lawrence Grade of Affected Joint Not Available, % [1, 7]: (1.9%) | Rapidly Progressive OA type 1: Joint affected Hip, % [1, 7]: (15.1%) | Rapidly Progressive OA type 1: Joint affected Knee, % [1, 7]: (83.0%) | Rapidly Progressive OA type 1: Joint affected Shoulder, % [1, 7]: (1.9%) | Rapidly Progressive OA type 2: Associated with TJR No, % [1, 7]: (43.8%) | Rapidly Progressive OA type 2: Associated with TJR Yes, % [1, 7]: (56.3%) | Rapidly Progressive OA type 2: Baseline Kellgren-Lawrence Grade of Affected Joint 0, % [1, 7]: (12.5%) | Rapidly Progressive OA type 2: Baseline Kellgren-Lawrence Grade of Affected Joint 1, % [1, 7]: (6.3%) | Rapidly Progressive OA type 2: Baseline Kellgren-Lawrence Grade of Affected Joint 2, % [1, 7]: (6.3%) | Rapidly Progressive OA type 2: Baseline Kellgren-Lawrence Grade of Affected Joint 3, % [1, 7]: (31.3%) | Rapidly Progressive OA type 2: Baseline Kellgren-Lawrence Grade of Affected Joint 4, % [1, 7]: (37.5%) | Rapidly Progressive OA type 2: Baseline Kellgren-Lawrence Grade of Affected Joint Not Available, % [1, 7]: (6.3%) | Rapidly Progressive OA type 2: Joint affected Hip, % [1, 7]: (43.8%) | Rapidly Progressive OA type 2: Joint affected Knee, % [1, 7]: (50.0%) | Rapidly Progressive OA type 2: Joint affected Shoulder, % [1, 7]: (6.3%) | Subchondral Insufficiency Fracture: Associated with TJR No, % [1, 7]: (57.1%) | Subchondral Insufficiency Fracture: Associated with TJR Yes, % [1, 7]: (42.9%) | Subchondral Insufficiency Fracture: Baseline Kellgren-Lawrence Grade of Affected Joint 0, % [1, 7]: (14.3%) | Subchondral Insufficiency Fracture: Baseline Kellgren-Lawrence Grade of Affected Joint 1, % [1, 7]: (14.3%) | Subchondral Insufficiency Fracture: Baseline Kellgren-Lawrence Grade of Affected Joint 2, % [1, 7]: (57.1%) | Subchondral Insufficiency Fracture: Baseline Kellgren-Lawrence Grade of Affected Joint 3, % [1, 7]: (14.3%) | Subchondral Insufficiency Fracture: Joint affected Hip, % [1, 7]: (14.3%) | Subchondral Insufficiency Fracture: Joint affected Knee, % [1, 7]: (85.7%) | binding to human NGF (NGF): high affinity and specificity
